Assay results from PMC12126490, “The HP1 box of KAP1 organizes HP1α for silencing of endogenous retroviral elements in embryonic stem cells” (Nature Communications, 2025).

Tests used:
[1] = tested on: dsRed-HP1α in E14 ESC cells; experiment: heterochromatin half-FRAP (MOCHA-FRAP); assay type: cell-based, mouse; conditions: bleached and non-bleached half of heterochromatin compartment, living ESCs
Description: E14 ESC cells were transfected with 3 µg of pdsRed-HP1α and either pGFP or pGFP-KAP1FR using AMAXA nucleofector (Lonza), seeded in slide chambers containing high precision glass overnight at 37 °C and 5% CO2. Samples were analyzed using a Leica SP5-II confocal point scanner microscope equipped with 488 nm Argon ion and 561 nm DPSS 50 mW lasers, a AOBS beams splitter and a HyD Hybrid detector. Cells were first scanned for GFP^+ using a HCX PL APO 100x Corr CS objective, and a section of 64 × 64 pixels with 0.8-0.6 µm/px size containing one heterochromatin compartment of these cells was selected. Subsequently, a point region of interest was used to bleach the half of the heterochromatin compartment for 100 ms at maximum intensity of the laser (488 and 561 nm). The recovery was documented for 15 s with a frame rate of approximately 100 ms/frame. MOCHA-FRAP analysis was performed as in ref. [36].

[2] = tested on: endogenous HP1α in KAP1^−/− ESCs; experiment: immunofluorescence of endogenous HP1α; assay type: cell-based; conditions: KAP1^−/− mouse ESCs stably expressing the GFP-labeled construct, anti-HP1α antibody, DAPI
Description: The constructs coding for GFP-KAP1RF and the P486A/V488A/L490A mutant were transfected into 1 ×10^5 KAP1^−/− mouse ESCs using Lipofectamine 3000 (Invitrogen). Forty-eight hours post-transfection, cells were trypsinized and plated at a colony density in selection medium containing 10 μg/ml blasticidin (Thermo Fisher Sci) for one week. The selection process was repeated once to establish stable GFP-KAP1 expressing cell lines.
For immunostaining, mouse ESCs were cultured on Geltrex-coated coverslips (Life Technologies) in DMEM supplemented with 16% fetal bovine serum, 0.1 mM β-mercaptoethanol (Invitrogen), 2 mM L-glutamine, 1× MEM non-essential amino acids, 100 U/ml penicillin, 100 µg/ml streptomycin (PAA), 2i (1 μM PD032591 and 3 μM CHIR99021 (Axon Medchem, Netherlands) and 1000 U/ml recombinant LIF (Millipore). Coverslips were rinsed twice with PBS (pH 7.4; 140 mM NaCl, 2.7 mM KCl, 6.5 mM Na2HPO4, 1.5 mM KH2PO4), followed by fixation with 3.7% formaldehyde (Sigma) for 10 min. Fixed cells were washed three times (10 min each) with PBST (PBS + 0.01% Tween-20), permeabilized in 0.5% Triton X-100 for 10 min, and washed twice (10 min each) with PBST. Primary and secondary antibodies were prepared in blocking solution (PBST + 3% BSA). […]

[3] = tested on: DNA-induced HP1α phase separated droplets; experiment: in vitro droplet assay; conditions: 50 µM HP1α, 0.18 µM 601 DNA
From the text: For droplet assays, cDNA of full-length HP1α was cloned into a pET28 expression vector. His-tag fusion HP1α was expressed in E. coli and purified as in ref. [51]. cDNA of the KAP1FR fragment (aa 114–834) was cloned into a pCAG-GFP expression vector, and the P486A/V488A/L490A mutant of GFP-KAP1FR was generated using overlap extension PCR. Purification of GFP-KAP1FR proteins was described in ref. [52].
For the droplet assay, Widom 601 DNA was amplified by PCR using a plasmid coding for 12× 601 DNA with primers as follows: 601 DNA_F: […] and 601 DNA_R: TGCACAGGATGTATATATCTGACAC. HP1α was concentrated to ~10 µg/µl using Amicon concentrators. The buffer changes for both HP1α and GFP-KAP1FR solutions were carried out using Zeba™ Spin Desalting Columns with a buffer containing 20 mM HEPES at pH 7.2, 75 mM KCl, and 1 mM DTT. For visualization of His-tagged-HP1α within the droplets, 500 ng of protein was labeled with the 647 N fluorescent label using the Monolith NT™ Protein Labeling Kit RED-NHS from Nano Temper. To form HP1α droplets, 50 µM of HP1α was incubated with 0.18 µM of 601 DNA for 3 min and dropped into ibidi chamber (µ-Slide 18 Well). Subsequently, 50 ng of the labeled HP1α and 100 ng of GFP-KAP1FR (wild type or mutant) were added into HP1α/DNA droplets. The images of the droplets were collected using a Nikon TiE microscope equipped with a Yokogawa CSU-W1 spinning-disk confocal unit (50 μm pinhole size), an Andor Borealis illumination unit, Andor ALC600 laser beam combiner (405 nm/488 nm/561 nm/640 nm), Andor IXON 888 Ultra EMCCD camera, and a Nikon 100×/1.45 NA oil immersion objective. The size and intensity of HP1α phase-separated droplets were analyzed using ImageJ.

B1: GFP-KAP1FR: GFP labeled KAP1 fragment (aa 114–834 of KAP1) (protein)
chain: VVDCPVCKQQCFSKDIVENYFMRDSGSKAATDAQDANQCCTSCEDNAPATSYCVECSEPLCETCVEAHQRVKYTKDHTVRSTGPAKSRDGERTVYCNVHKHEPLVLFCESCDTLTCRDCQLNAHKDHQYQFLEDAVRNQRKLLASLVKRLGDKHATLQKSTKEVRSSIRQVSDVQKRVQVDVKMAILQIMKELNKRGRVLVNDAQKVTEGQQERLERQHWTMTKIQKHQEHILRFASWALESDNNTALLLSKKLIYFQLHRALKMIVDPVEPHGEMKFQWDLNAWTKSAEAFGKIVAERPGTNSTGPAPMAPPRAPGPLSKQGSGSSQPMEVQEGYGFGSGDDPYSSAEPHVSGVKRSRSGEGEVSGLMRKVPRVSLERLDLDLTADSQPPVFKVFPGSTTEDYNLIVIERGAAAAATGQPGTAPAGTPGAPPLAGMAIVKEEETEAAIGAPPTATEGPETKPVLMALAEGPGAEGPRLASPSGSTSSGLEVVAPEGTSAPGGGPGTLDDSATICRVCQKPGDLVMCNQCEFCFHLDCHLPALQDVPGEEWSCSLCHVLPDLKEEDGSLSLDGADSTGVVAKLSPANQRKCERVLLALFCHEPCRPLHQLATDSTFSLDQPGGTLDLTLIRARLQEKLSPPYSSPQEFAQDVGRMFKQFNKLTEDKADVQSIIGLQRFFETRMNEAFGDTKFSAVLVEPPPMSLPGAGLSSQELSGGPGDG
modifications: left off: GFP, end not stated, kept
For B1, the “fluorescence recovery of HP1α” value [1] was “neither the bleached half (thin purple line) nor the non-bleached half (thick purple line) fully recovered their fluorescence”, the “distribution of endogenous HP1α (puncta)” value [2] was “Endogenous HP1α formed large puncta and colocalized with GFP-KAP1FR” and the “sequestration of 647N labeled HP1α into droplets” value ([3]; 20 mM HEPES pH 7.2, 75 mM KCl, 1 mM DTT, 100 ng GFP-KAP1FR, 50 ng labeled HP1α) was “sequestered HP1a into the interior of droplets within a minute”. The “localization of GFP-KAP1FR in droplets” value ([3]; confocal microscopy) was “concentrated at the periphery of the droplets”.
